From patent US20260265386A1 (Chugai, published 2026)

B1: PDC0053 (antibody, human IgG1, kappa, V domains shown)
VH: QQHLVESGGGLVKPGASLTLTCKASGFYFSGYYYMSWVRQAPGKGLEWIASIYSGGSGNTYYASWAKGRFTISKTSSTTVTLQMTSLTAADTATYFCARGADYTHDYPADAAAWSFDPWGPGTLVTVSS
VL: DIVMTQTPASVEAAVGGIVTIKCQASQSISSYLAWYQQKPGQPPNLLIYRASTLASGVPSRFKGSGSGTQFTLTISDLEAADAATYYCQGYHFSSTSSNYGNAFGGGTEVVVKR
B2: PDE0171 (antibody, human IgG1, kappa, V domains shown)
VH: QSLEESGGGLVKPGASLTLTCTASGFSFSGSYYMCWVRQAPGKGLECIACIYAGSSGATYYASWAKGRFTVSKTSSTTVTLQMTSLTAADTATYFCARHTNGIGLGLWGPGTLVTVSS
VL: DIVMTQTPASVSAAVGGTVSINCQASEDIENFLAWYQQKPGQPPSLLIYETSKLASGVPSRFSGSGSGTEFTLTISDLEAADAATYYCQSYDWSDSSTYDNTFGGGTEVVVKR
B3: PDC0037 (antibody, human IgG1, kappa, V domains shown)
VH: QSVEESGGRLVTPGTPLTLTCTVSGFSLSYYAMIWVRQAPGKGLEWIGFINSYGKTYYANWAKGRFTISKTSTTVDLKMTSLTSEDTATYFCARERDNYHFNLWGQGTLVTVSS
VL: AQVLTQTPSPVSAAVGGTVTISCQSSESVYNNNWLAWYQQKPGQPPKFLIYDASTLASGVPSRFSGSGSGTQFTLTISGVQADDAATYYCQGTYYSSDWYFVFGGGTEVVVKR
B4: PDA0044 (antibody, human IgG1, kappa, V domains shown)
VH: QSVEESGGRLVTPGTPLTLTCTASGFSLSGYYMSWVRQAPGKGLEWIGSISYGGSTYYASWAKGRFTISKTSTTVDLKITSPTTEDTATYFCAAGYTTNTAFDPWGPGTLVTVSS
VL: AFELTQTPSSVEAAVGGTVTIKCQASQSISSYLAWYQQKPGQPPKLLIYGASNLKSGVPSRFKGSGSGTQFTLTISDLEAADAATYYCQSYYYSSSSSYSFGGGTEVVVKR
B5: PDA0129 (antibody, human IgG1, kappa, V domains shown)
VH: QSVEESGGRLVTPGTPLTLTCTVSGFSLSSYDMSWVRQAPGKGLEYIGIISSSGSTYYASWAKGRFTISKTSTTVDLKITSPTTEDTATYFCARLGYVGYGYADIWGPGTLVTVSS
VL: IEMTQTPFSVSAAVGGTVTIKCQASEDIYSLLAWYQQKPGQPPKLLIYSASTLASGVPSRFKGSGYGTEFTLTISGVQAADAATYYCQGGYYSSSADNTFGGGTEVVVKR
B6: PDA0138 (antibody, human IgG1, kappa, V domains shown)
VH: QSVEESGGRLVTPGTPLTLTCTVSGFSLSSYHMCWVRQPPGKGLEYIGIISGGAITYYATWAKGRFTISITSSTTVDLKITSPTTEDTATYFCARGGGYGGGDYNFDLWGQGTLVTVSS
VL: AAVLTQTPSPVSAAVGATVSISCQSSQSVYGNSELAWYQQKPGQRPKLLIFEASKLASGVPSRFSGSGSGTQFSLAISDVQADDAATYYCAGGYSSTSDTTFGGGTEVVVKR
B7: GY5 (antibody, human IgG1, kappa, V domains shown)
VH: QVQLQQSGPELVRPGVSVKISCKGSGHTFTDYALHWVRQSHVKSLEWIGVISSYNGITNYNQRFKGKATMTVDKSSSTAYLELARLTSEDSAIYYCSREEWDVFYYFDYWGQGTTLTVSS
VL: DIMLTQSPLSLPVSLGDQASISCRSSQGIVHSDGNTYLEWYLQKPGQSPKLLIYKVSNRFSGVPDRFSGSGSGTDFILKISRVEAEDLGVYYCFQGSHVPYTFGGGTKLEIKR
B8: GY14 (antibody, human IgG1, kappa, V domains shown)
VH: QVQLQQSGAELVRPGASVKLSCKALGDTFTDYEIHWVKQTPVHGLEWIGVIHPGSGGTVYNQKFKGKATLTADKYSSTAYMELSSLTSEDSAVYYCTREGMNTDWYFDVWGAGTTVTVSS
VL: DILMTQDELSLPVSLGDQASISCRSSQTIVHTNGNTYLEWYLQKPGQSPKLLIYKVSNRFSGVPDRFSGSGSGTYFTLKISRLEAEDLGVYYCFQGSHVPYTFGGGTKLEMKR
B9: PDA0107 (antibody, human IgG1, kappa, V domains shown)
VH: QSVEESGGRLVTPGTPLTLTCTVSGFSLSRYYMSWVRQAPGKGLEWIGYIYADSGSTWYASWAKGRFTISKTSTTVDLKMTSLTTEDTATYFCARRADHDGAFDLWGPGTLVTVSS
VL: AAVLTQTPSPVSAAVGGTVSISCQSSQSVYGKNELSWYQQKPGQPPKLLIYYASTLASGVPSRFSGSGSGTQFALTISGVQADDAATYYCAGGYSSSVDTTFGGGTEVVVKR

Target: T1, human PD1 on NFAT-luc2/PD1 Jurkat Cell line (Promega, #CS187102) (human, UniProt Q15116 25-288)
T1 construct: whole, on cells; also called PD1+Jurkat cells; human PD1-expressing cell line
Experiment: flow cytometry on NFAT-luc2/PD1 Jurkat cells, Ab 10 micro g/mL, detected with Goat F(ab')2 anti-Human IgG-PE
Source text: Unbound Abs were removed by washing twice with staining buffer.

T1 sequence (Q15116 25-288): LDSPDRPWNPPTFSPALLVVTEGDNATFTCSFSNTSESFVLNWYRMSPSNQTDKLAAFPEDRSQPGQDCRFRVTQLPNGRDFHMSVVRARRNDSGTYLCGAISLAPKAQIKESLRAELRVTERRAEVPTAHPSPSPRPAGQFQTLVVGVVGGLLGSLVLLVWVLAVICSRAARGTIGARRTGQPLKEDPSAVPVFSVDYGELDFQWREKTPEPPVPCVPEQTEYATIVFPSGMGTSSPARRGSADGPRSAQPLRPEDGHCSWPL

| Binder | binding result |
| --- | --- |
| B1 | binds |
| B2 | binds |
| B3 | binds |
| B4 | binds |
| B5 | binds |
| B6 | binds |
| B7 | binds |
| B8 | binds |
| B9 | binds |
